Paper PMC2659767, “Tracking Membrane Protein Association in Model Membranes” (PLoS ONE, 2009)

T1: OprM trimer, unlabeled (Pseudomonas aeruginosa, UniProt Q51487 18-485, palmitoyl moiety (said of the protein in general))
T1 construct: OprM, outer membrane protein of the MexA-MexB-OprM efflux pump of Pseudomonas aeruginosa; also called outer membrane protein OprM; source: expressed and purified as previously described [50]; solubilized in 1% beta-octylglucoside, then inserted into the L3 sponge phase
T1 sequence: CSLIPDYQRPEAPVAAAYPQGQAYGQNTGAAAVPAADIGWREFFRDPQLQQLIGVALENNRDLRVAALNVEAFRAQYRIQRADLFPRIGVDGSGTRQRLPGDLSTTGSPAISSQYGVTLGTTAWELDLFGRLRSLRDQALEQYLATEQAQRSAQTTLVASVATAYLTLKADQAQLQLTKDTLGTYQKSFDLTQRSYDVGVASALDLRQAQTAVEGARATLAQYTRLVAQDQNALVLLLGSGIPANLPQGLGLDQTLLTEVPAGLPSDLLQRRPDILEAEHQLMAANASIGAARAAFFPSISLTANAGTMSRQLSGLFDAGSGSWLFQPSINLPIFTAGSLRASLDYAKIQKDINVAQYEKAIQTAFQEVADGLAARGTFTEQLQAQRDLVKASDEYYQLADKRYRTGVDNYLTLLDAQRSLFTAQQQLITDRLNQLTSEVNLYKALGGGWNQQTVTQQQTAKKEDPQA

B1: OprM, FITC-labeled (natural protein)
chain: T1 sequence
modifications: FITC label; palmitoyl moiety (said of the protein in general)
notes: OprM, outer membrane protein of the MexA-MexB-OprM efflux pump of Pseudomonas aeruginosa; Same protein as m2, here labeled with FITC and measured alone; also called FITC-labeled OprM; OprM trimer; source: expressed and purified as previously described [50]; labeled with FITC; inserted into the L3 sponge phase
B2: MexA, mature form bearing a palmitoyl moiety, FITC-labeled (natural protein)
chain: CGKSEAPPPAQTPEVGIVTLEAQTVTLNTELPGRTNAFRIAEVRPQVNGIILKRLFKEGSDVKAGQQLYQIDPATYEADYQSAQANLASTQEQAQRYKLLVADQAVSKQQYADANAAYLQSKAAVEQARINLRYTKVLSPISGRIGRSAVTEGALVTNGQANAMATVQQLDPIYVDVTQPSTALLRLRRELASGQLERAGDNAAKVSLKLEDGSQYPLEGRLEFSEVSVDEGTGSVTIRAVFPNPNNELLPGMFVHAQLQEGVKQKAILAPQQGVTRDLKGQATALVVNAQNKVELRVIKADRVIGDKWLVTEGLNAGDKIITEGLQFVQPGVEVKTVPAKNVASAQKADAAPAKTDSKG
modifications: palmitoyl moiety (on the unique N-terminal cysteine); FITC label
notes: MexA, periplasmic lipoprotein of the MexA-MexB-OprM efflux pump of Pseudomonas aeruginosa, in its mature form; Found monomeric in the sponge phase; also called FITC-labeled MexA; periplasmic protein MexA; source: solubilized in 1% beta-octylglucoside, then inserted into the L3 sponge phase

Assays:
[1] = molecular target: the molecule itself; experiment: FRAPP (fluorescence recovery after fringe pattern photobleaching); FITC-labeled OprM alone in the sponge phase, dW>170 A; hydrodynamic radius from the diffusion coefficient compared with crystallographic and electron microscopy data
OprM trimer, unlabeled [2] = molecular target: T1, OprM trimer, unlabeled; experiment: FRAPP (fluorescence recovery after fringe pattern photobleaching); dW about 200 A, pH 7.5; OprM trimer constant at 1 uM, molar ratio r of FITC-labeled MexA to OprM trimer varied; stoichiometry from the intensity I0 of free MexA; details: both partners purified
OprM trimer, unlabeled [3] = molecular target: T1, OprM trimer, unlabeled; experiment: FRAPP (fluorescence recovery after fringe pattern photobleaching); as a5 (dW about 200 A, stoichiometry from free MexA intensity) but at pH 5.5; details: both partners purified

Row | Binder | stoichiometry N [1] | stoichiometry N (OprM trimer, unlabeled [2]) [MexA per OprM trimer] | stoichiometry N (OprM trimer, unlabeled [3]) [MexA per OprM trimer]
1 | B1 | 3 | – | –
2 | B2 | – | 2 | 6
